Changes are numbered by the printed parent chain.
T1: IL-5Rα (human, UniProt Q01344)
T1 chain: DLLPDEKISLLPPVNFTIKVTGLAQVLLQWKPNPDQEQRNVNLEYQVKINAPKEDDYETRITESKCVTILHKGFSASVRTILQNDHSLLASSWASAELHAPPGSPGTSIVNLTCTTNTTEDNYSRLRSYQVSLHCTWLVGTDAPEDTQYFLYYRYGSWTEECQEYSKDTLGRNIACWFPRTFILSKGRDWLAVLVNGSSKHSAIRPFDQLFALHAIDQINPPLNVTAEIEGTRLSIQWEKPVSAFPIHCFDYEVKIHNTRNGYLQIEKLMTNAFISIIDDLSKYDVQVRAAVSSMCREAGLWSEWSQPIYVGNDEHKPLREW

B1: IL-5Rα×CD3ε scFv(L)/scFv-Fc (CD3ε arm) (antibody, V domains shown)
VH: EVQLVESGGGLVQPKGSLKLSCAASGFTFNTYAMNWVRQAPGKGLEWVARIRSKYNNYATYYADSVKDRFTISRDDSQSILYLQMNNLKTEDTAMYYCVRHGNFGNSYVSWFAYWGQGTLVTVSS
VL: QAVVTQESALTTSPGETVTLTCRSSTGAVTTSNYANWVQEKPDHLFTGLIGGTNKRAPGVPARFSGSLIGDKAALTITGAQTEDEAIYFCALWYSNLWVFGGGTKLTVL
B2: IL-5Rα×CD3ε IgG analog (CD3ε arm) (antibody, V domains shown)
VH: B1 VH
VL: B1 VL
B3: IL-5Rα×CD3ε Diabody-Fc (CD3ε arm) (antibody, V domains shown)
VH: B1 VH
VL: B1 VL
B4: IL-5Rα×CD3ε BiTE(L)/scFv-Fc (CD3ε arm) (antibody, V domains shown)
VH: B1 VH
VL: B1 VL
B5: IL-5Rα×CD3ε BiTE(L)/scFv-Fc (IL-5Rα arm) (antibody, V domains shown)
VH: QVQLVQSGAEVKKPGSSVKVSCKASGYTFTSYWINWVRQAPGQGLEWIGHIYPNKNENYYNHKFKDKATLTVDKSTNTAYMELSSLRSEDTAVYYCTREFYGRQYYQAMDYWGQGTTLTVSS
VL: DIQMTQSPSTLSASVGDRVTITCKASQNVGTAVAWYQQKPGKAPKLLIYWASTRHTGVPDRFSGSGSGTDFTLTISSLQPDDFATYYCQQFGRYPYTFGSGTKVEVK
B6: IL-5Rα×CD3ε scFv(L)/scFv-Fc (IL-5Rα arm) (antibody, V domains shown)
VH: B5 VH
VL: B5 VL
B7: IL-5Rα×CD3ε IgG analog (IL-5Rα arm) (antibody, V domains shown)
VH: B5 VH
VL: B5 VL
B8: IL-5Rα×CD3ε Diabody-Fc (IL-5Rα arm) (antibody, V domains shown)
VH: B5 VH
VL: B5 VL
B9: Benralizumab (antibody, V domains shown)
VH: EVQLVQSGAEVKKPGASVKVSCKASGYTFTSYVIHWVRQRPGQGLAWMGYINPYNDGTKYNERFKGKVTITSDRSTSTVYMELSSLRSEDTAVYLCGREGIRYYGLLGDYWGQGTLVTVSS
VL: DIQMTQSPSSLSASVGDRVTITCGTSEDIINYLNWYQQKPGKAPKLLIYHTSRLQSGVPSRFSGSGSGTDFTLTISSLQPEDFATYYCQQGYTLPYTFGQGTKVEIK
B10: 5R65 (antibody, V domains shown)
VH: B5 VH with E99D, F100Y, Q104S, Q107Y
VL: B5 VL
B11: 5R65.7 (antibody, V domains shown)
VH: B5 VH
VL: B5 VL

Each binder was assayed against CD3ε (human, UniProt P07766) (assay: BLI).
Chain of CD3ε (P07766 23-207): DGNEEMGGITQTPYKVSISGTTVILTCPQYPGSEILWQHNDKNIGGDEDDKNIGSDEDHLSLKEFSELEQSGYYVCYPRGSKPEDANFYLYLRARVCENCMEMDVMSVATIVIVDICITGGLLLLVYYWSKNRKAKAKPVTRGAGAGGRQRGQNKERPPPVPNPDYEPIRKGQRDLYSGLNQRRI

Binder	Kd [nM]
B1	3.61
B2	1.71
B3	8.41
B4	4.62

Molecular target: T1, IL-5Rα
Experiment: BLI

Binder	Kd [nM]
B5	22.9
B6	59.8
B7	30.5
B8	123

Molecular target: T1, IL-5Rα
Experiment: not given

Binder	Kd [nM]
B9	26.8
B10	14.5
B11	4.64

Source: US20260308264 (published 2026)
